From article PMC11404819, “Peptide nucleic acids can form hairpins and bind RNA-binding proteins”

Target: T1, Avi-FtsYNG (UniProt P10121 196-497)
T1 sequence: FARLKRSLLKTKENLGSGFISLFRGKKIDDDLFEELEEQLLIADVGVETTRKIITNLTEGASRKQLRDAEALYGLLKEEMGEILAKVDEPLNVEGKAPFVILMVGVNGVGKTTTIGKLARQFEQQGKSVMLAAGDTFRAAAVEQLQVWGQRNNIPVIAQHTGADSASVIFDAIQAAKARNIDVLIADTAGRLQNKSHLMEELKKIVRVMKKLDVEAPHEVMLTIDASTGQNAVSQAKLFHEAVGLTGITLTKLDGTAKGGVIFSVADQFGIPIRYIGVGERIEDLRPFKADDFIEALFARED
Assay: SPR; 10 C; RNA over immobilised protein; curve incomplete, fit fixed with GDP control; figure legend swaps panels with PNAtet; SPR: 20 mM HEPES pH 7.5, 150 mM NaCl, 3 mM MgCl2, 1 mM TCEP, 1% glycerol, 0.005% Tween, 10 C; MST: 50 mM HEPES pH 7.5, 100 mM NaCl, 1.5 mM MgCl2, 10% glycerol
Settings: protein: recombinant; tags: Avi tag, biotinylated, immobilised on streptavidin; hairpin, 5 bp stem

Binder: GCGCCGGAAGGCGC (structured_RNA, first and last two phosphodiester bonds replaced by phosphorothioate) [moRNAtet]
- Kd: 160 ± 20 µM
